These results are taken from PMC11774494.

The test deals with 17b (CD4-induced human monoclonal antibody). Description: flow cytometry of transfected 293T cells: staining with 10 μg/ml 17b with or without sCD4-183, detection with APC anti-human IgG F(ab')2, arithmetic mean APC fluorescence of live (propidium iodide negative) single cells; 'All titrations …. Particulars: sCD4-183 at 0, 0.078125, 0.3125, 1.25, 5, 20, 80 μM (row value in value_extra.sCD4_183_uM), 20 min staining at room temperature, CAUTION: 17b staining of cell-surface trimers with sCD4, mostly reports trimer opening, normalized per Env, one titration each. Higher = more 17b staining of cell-surface Env. 17b's epitope is exposed, numbering: unknown, sequence starts at 1.

Where [1] appears, read: AUC over sCD4-183 0-80 μM, parent: 0.907, scale: area under the normalized MFI curve, log10 x-axis.
[2] abbreviates: sCD4-183 0 μM, parent: 0.0187, scale: normalized MFI.
Setting [3] is: sCD4-183 0.078125 μM, parent: 0.0465, scale: normalized MFI.
[4] abbreviates: sCD4-183 0.3125 μM, parent: 0.0578, scale: normalized MFI.
Where [5] appears, read: sCD4-183 1.25 μM, parent: 0.0973, scale: normalized MFI.
[6] abbreviates: sCD4-183 5 μM, parent: 0.198, scale: normalized MFI.
Where [7] appears, read: sCD4-183 20 μM, parent: 0.585, scale: normalized MFI.
[8] abbreviates: sCD4-183 80 μM, parent: 1, scale: normalized MFI.

Regarding “HIV-1 JR-CSF envelope glycoprotein gp160 (Env), P20871 JR-CSF_D167A”, the screen value worked out at 2.23 under setting [1]; 0.0723 under setting [2]; 0.181 under setting [3]; 0.357 under setting [4]; 0.663 under setting [5]; 0.945 under setting [6]. Besides, the screen value is, setting by setting: under setting [7], 0.977; under setting [8], 1.
As to “HIV-1 JR-CSF envelope glycoprotein gp160 (Env), P20871 JR-CSF_E172A”, the screen value was found to be 0.0468 under setting [2]; 0.104 under setting [3]; 0.136 under setting [4]; 0.175 under setting [5]; 0.305 under setting [6]; 0.636 under setting [7]. Also, under setting [8], the screen value is 1.
Take “HIV-1 JR-CSF envelope glycoprotein gp160 (Env), P20871 JR-CSF_F176A”: the screen value by setting is: under setting [1], 3.09; under setting [2], 0.522; under setting [3], 0.639; under setting [4], 0.761; under setting [5], 0.839; under setting [6], 0.927. Moreover, the screen value runs as follows: under setting [7], 0.946; under setting [8], 1.
With “HIV-1 JR-CSF envelope glycoprotein gp160 (Env), P20871 JR-CSF_F210A”, the screen value under setting [2] is 0.0285; the screen value under setting [3] is 0.184; the screen value under setting [4] stood at 0.319; the screen value under setting [5] was 0.527; the screen value under setting [6] turned out to be 0.908; the screen value under setting [7] amounted to 1. Also, the screen value under setting [8] stood at 0.997.
Turning to “HIV-1 JR-CSF envelope glycoprotein gp160 (Env), P20871 JR-CSF_F317A”, the screen value under setting [1] amounted to 3.03; the screen value under setting [2] was 0.358; the screen value under setting [3] worked out at 0.582; the screen value under setting [4] is 0.76; the screen value under setting [5] came to 0.878; the screen value under setting [6] stood at 0.942. Besides, the screen value came out at 0.988 under setting [7] and 1 under setting [8].
“HIV-1 JR-CSF envelope glycoprotein gp160 (Env), P20871 JR-CSF_G324A”: the screen value is, setting by setting: under setting [1], 2.77; under setting [2], 0.248; under setting [3], 0.463; under setting [4], 0.601; under setting [5], 0.836; under setting [6], 0.959. Further, the screen value by setting is: under setting [7], 0.96; under setting [8], 1.
For “HIV-1 JR-CSF envelope glycoprotein gp160 (Env), P20871 JR-CSF_H308A”, the screen value is, setting by setting: under setting [1], 0.82; under setting [2], 0.0195; under setting [3], 0.0512; under setting [4], 0.0642; under setting [5], 0.0948; under setting [6], 0.178. In addition, the screen value reads like this: under setting [7], 0.449; under setting [8], 1.
On to “HIV-1 JR-CSF envelope glycoprotein gp160 (Env), P20871 JR-CSF_I307A”, for which the screen value by setting is: under setting [1], 3.25; under setting [2], 0.46; under setting [3], 0.691; under setting [4], 0.871; under setting [5], 0.946; under setting [6], 0.908. Further, the screen value under setting [7] was found to be 1 and the screen value under setting [8] came to 0.979.
For “HIV-1 JR-CSF envelope glycoprotein gp160 (Env), P20871 JR-CSF_I309A”, the screen value under setting [1] was 3.03; the screen value under setting [2] was 0.326; the screen value under setting [3] amounted to 0.555; the screen value under setting [4] came out at 0.777; the screen value under setting [5] was 0.912; the screen value under setting [6] stood at 0.974. Further, the screen value runs as follows: under setting [7], 0.97; under setting [8], 1.
“HIV-1 JR-CSF envelope glycoprotein gp160 (Env), P20871 JR-CSF_I323A”: the screen value was found to be 2.75 under setting [1]; 0.211 under setting [2]; 0.421 under setting [3]; 0.606 under setting [4]; 0.838 under setting [5]; 0.988 under setting [6]. Moreover, the screen value under setting [7] turned out to be 1 and the screen value under setting [8] stood at 0.946.
Take “HIV-1 JR-CSF envelope glycoprotein gp160 (Env), P20871 JR-CSF_K305A”: the screen value under setting [1] amounted to 2.6; the screen value under setting [2] was found to be 0.182; the screen value under setting [3] worked out at 0.383; the screen value under setting [4] came to 0.554; the screen value under setting [5] stood at 0.754; the screen value under setting [6] is 0.935. Moreover, the screen value came out at 1 under setting [7] and 0.978 under setting [8].
As for “HIV-1 JR-CSF envelope glycoprotein gp160 (Env), P20871 JR-CSF_N156A”, the screen value was 2.72 under setting [1]; 0.272 under setting [2]; 0.437 under setting [3]; 0.595 under setting [4]; 0.796 under setting [5]; 0.913 under setting [6]. Further, the screen value by setting is: under setting [7], 1; under setting [8], 0.984.
For the substance “HIV-1 JR-CSF envelope glycoprotein gp160 (Env), P20871 JR-CSF_N197K”, the screen value by setting is: under setting [1], 2.29; under setting [2], 0.116; under setting [3], 0.231; under setting [4], 0.402; under setting [5], 0.643; under setting [6], 0.91. Further, the screen value stood at 1 under setting [7] and 0.993 under setting [8].
Take “HIV-1 JR-CSF envelope glycoprotein gp160 (Env), P20871 JR-CSF_N301A”: the screen value under setting [1] was 2.59; the screen value under setting [2] was determined as 0.178; the screen value under setting [3] worked out at 0.314; the screen value under setting [4] amounted to 0.564; the screen value under setting [5] worked out at 0.801; the screen value under setting [6] was 0.974. Further, the screen value under setting [7] is 0.958 and the screen value under setting [8] stood at 1.
On to “HIV-1 JR-CSF envelope glycoprotein gp160 (Env), P20871 JR-CSF_N332A”, for which the screen value turned out to be 1.33 under setting [1]; 0.0498 under setting [2]; 0.0842 under setting [3]; 0.124 under setting [4]; 0.2 under setting [5]; 0.456 under setting [6]. The screen value was determined as 0.802 under setting [7] and 1 under setting [8].
Consider “HIV-1 JR-CSF envelope glycoprotein gp160 (Env), P20871 JR-CSF_P470A”, for which the screen value runs as follows: under setting [1], 1.6; under setting [2], 0.119; under setting [3], 0.215; under setting [4], 0.298; under setting [5], 0.381; under setting [6], 0.492. Besides, the screen value under setting [7] amounted to 0.645 and the screen value under setting [8] was 1.
As to “HIV-1 JR-CSF envelope glycoprotein gp160 (Env), P20871 JR-CSF_S199A”, the screen value under setting [1] was 2.18; the screen value under setting [2] was 0.0532; the screen value under setting [3] was found to be 0.183; the screen value under setting [4] is 0.348; the screen value under setting [5] was 0.593; the screen value under setting [6] is 0.931. Also, the screen value turned out to be 0.997 under setting [7] and 1 under setting [8].
